T1: Ser-PRLR (1-210) (UniProt P16471 25-234)
T1 construct: range 1-210; also called PRL receptor; prolactin receptor
T1 sequence: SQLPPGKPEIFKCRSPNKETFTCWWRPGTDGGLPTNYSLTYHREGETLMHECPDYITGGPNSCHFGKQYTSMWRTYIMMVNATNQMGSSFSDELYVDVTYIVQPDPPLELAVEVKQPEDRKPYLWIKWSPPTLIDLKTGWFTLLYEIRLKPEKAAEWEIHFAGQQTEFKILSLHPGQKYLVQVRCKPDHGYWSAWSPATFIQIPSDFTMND


Target: T1, Ser-PRLR (1-210)
Assay: SPR (Biacore 3000): Ser-PRLR (1-210) amine-coupled to a CM5 chip, analogue injected at 500 nM
Description: Ser-PRLR (1-210) (25 μg/ml in 10 mM sodium acetate, pH 3.0), was injected into a Biacore 3000 instrument at a flow rate of 5 μl/min and coupled to a CM5 sensor chip by amine coupling chemistry. […] Data evaluation was performed in BiaEvaluation 4.1. Regeneration was accomplished with 4.5 M MgCl₂ between runs.
The PRL receptor binding affinity of G129R-PRL was compared to that of N56D,G129R-PRL (corresponding to the deamidated form of G129R-PRL), using the Biacore-assay. […] Thus, deamidation of […] markedly reduces the receptor binding affinity

Binder | Kd
G129R-PRL (ligand, also called G129R-hPRL) LPICPGGAARCQVTLRDLFDRAVVLSHYIHNLSSEMFSEFDKRYTHGRGFITKAINSCHTSSLATPEDKEQAQQMNQKDFLSLIVSILRSWNEPLYHLVTEVRGMQEAPEAILSKAVEIEEQTKRLLERMELIVSQVHPETKENEIYPVWSGLPSLQMADEESRLSAYYNLLHCLRRDSHKIDNYLKLLKCRIIHNNNC | 27 nM
N56D,G129R-PRL (ligand, Recombinant mutant that mimics G129R-PRL deamidated at Asn-56; also called deamidated form of G129R-PRL) LPICPGGAARCQVTLRDLFDRAVVLSHYIHNLSSEMFSEFDKRYTHGRGFITKAIDSCHTSSLATPEDKEQAQQMNQKDFLSLIVSILRSWNEPLYHLVTEVRGMQEAPEAILSKAVEIEEQTKRLLERMELIVSQVHPETKENEIYPVWSGLPSLQMADEESRLSAYYNLLHCLRRDSHKIDNYLKLLKCRIIHNNNC | 313 nM

From patent US20100292444A1 (published 2010)
